Results: publication PMC5380960

Biological target: LH2-G1 (wild-type LH2 with the N-terminal fragment of Gaussia luciferase fused to its C-terminus) (UniProt O00469)
Experiment: split reporter (BiFC, NanoBiT); Gaussia luciferase protein-fragment complementation; LH2-G1 and FKBP65-G2 plasmids co-transfected 1:1 into 293F cells, 48 h, passive lysis buffer, luciferase activity of total cell lysates with 20 μM native coelenterazine

Sequence of UniProt O00469 (O00469 26-737): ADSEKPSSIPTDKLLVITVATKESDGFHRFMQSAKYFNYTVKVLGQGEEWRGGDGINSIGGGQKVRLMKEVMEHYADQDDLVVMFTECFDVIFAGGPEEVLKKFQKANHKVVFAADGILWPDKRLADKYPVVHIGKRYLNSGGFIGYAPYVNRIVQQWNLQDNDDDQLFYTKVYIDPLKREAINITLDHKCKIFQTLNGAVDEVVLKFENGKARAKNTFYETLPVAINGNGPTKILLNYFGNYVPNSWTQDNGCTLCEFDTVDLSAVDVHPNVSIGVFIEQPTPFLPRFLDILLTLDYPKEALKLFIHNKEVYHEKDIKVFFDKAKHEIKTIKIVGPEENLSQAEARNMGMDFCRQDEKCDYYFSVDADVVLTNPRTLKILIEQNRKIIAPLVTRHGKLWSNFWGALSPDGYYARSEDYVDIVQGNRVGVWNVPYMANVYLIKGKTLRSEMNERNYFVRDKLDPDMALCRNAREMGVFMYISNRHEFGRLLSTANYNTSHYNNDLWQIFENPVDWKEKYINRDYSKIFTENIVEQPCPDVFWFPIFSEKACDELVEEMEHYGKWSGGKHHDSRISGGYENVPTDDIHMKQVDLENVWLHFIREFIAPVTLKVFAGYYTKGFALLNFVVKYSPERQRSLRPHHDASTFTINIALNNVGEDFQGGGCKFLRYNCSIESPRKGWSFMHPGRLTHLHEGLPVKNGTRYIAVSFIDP

- fold luciferase activity of co-transfected cells over either vector alone: 800 fold
Substance: FKBP65-G2 (FKBP65 with the C-terminal fragment of Gaussia luciferase fused to its C-terminus) (from UniProt Q96AY3 27-582) (enzyme)
